This is an account of results in publication PMC9813358, “Insights into the GSDMB-mediated cellular lysis and its targeting by IpaH7.8” (Nature Communications, 2023).

Sequences and labels used below:
B1: human GSDMD [human] / IpaH7.8 protein (residues 23–565) [Shigella flexneri] (parent)
chain 1: MGSAFERVVRRVVQELDHGGEFIPVTSLQSSTGFQPYCLVVRKPSSSWFWKPRYKCVNLSIKDILEPDAAEPDVQRGRSFHFYDAMDGQIQGSVELAAPGQAKIAGGAAVSDSSSTSMNVYSLSVDPNTWQTLLHERHLRQPEHKVLQQLRSRGDNVYVVTEVLQTQKEVEVTRTHKREGSGRFSLPGATCLQGEGQGHLSQKKTVTIPSGSTLAFRVAQLVIDSDLDVLLFPDKKQRTFQPPATGHKRSTSEGAWPQLPSGLSMMRCLHNFLTDGVPAEGAFTEDFQGLRAEVETISKELELLDRELCQLLLEGLEGVLRDQLALRALEEALEQGQSLGPVEPLDGPAGAVLECLVLSSGMLVPELAIPVVYLLGALTMLSETQHKLLAEALESQTLLGPLELVGSLLEQSAPWQERSTMSLPPGLLGNSWGEGAPAWVLLDECGLELGEDTPHVCWEPQAQGRMCALYASLALLSGLSQEPH
chain 2: SNEHYLRILTEWEKNSSPGEERGIAFNRLSQCFQNQEAVLNLSDLNLTSLPELPKHISALIVENNKLTSLPKLPAFLKELNADNNRLSVIPELPESLTTLSVRSNQLENLPVLPNHLTSLFVENNRLYNLPALPEKLKFLHVYYNRLTTLPDLPDKLEILCAQRNNLVTFPQFSDRNNIRQKEYYFHFNQITTLPESFSQLDSSYRINISGNPLSTRVLQSLQRLTSSPDYHGPQIYFSMSDGQQNTLHRPLADAVTAWFPENKQSDVSQIWHAFEHEEHANTFSAFLDRLSDTVSARNTSGFREQVAAWLEKLSASAELRQQSFAVAADATESCEDRVALTWNNLRKTLLVHQASEGLFDNDTGALLSLGREMFRLEILEDIARDKVRTLHFVDEIEVYLAFQTMLAEKLQLSTAVKEMRFYGVSGVTANDLRTAEAMVRSREENEFTDWFSLWGPWHAVLKRTEADRWAQAEEQKYEMLENEYSQRVADRLKASGLSGDADAEREAGAQVMRETEQQIYRQLTDEVLALRLSENGSRLHHS

In this assay the parent is B1. Put plainly: ITC. The conditions noted are these: with IpaH7.8 protein (residues 23–565) [Shigella flexneri].
The term Kd denotes the free concentration of one partner at which half of the binding sites on the other are occupied at equilibrium, for simple one-to-one binding. Regarding chain 1 S124R, the Kd stood at 230 nM.
